The conditions of series [1]: reference for disordered protein in CD222/CD208 plot; cited from earlier work.
Series [2] is described as follows: Far-UV circular dichroism, helical content of T-domain peptides. The conditions noted are these: for no. of residues, unordered: total number in peptide excluding tags minus residues in helices; for secondary structure, in words: far-UV CD, 50 mM sodium phosphate; for no. of residues, helix: from helical content by far-UV CD, DichroWeb, tags assumed unordered. It counts as physicochemical. A general note: Circular dichroism is widely used to follow secondary structure.

Series [3] is described as follows: Thermal melting followed by CD at 222 nm. It counts as physicochemical. To be noted: CD 222 nm, 0.5 °C/min, 1 cm cuvette, pH 7.0.
The target of series [4] is TolC (Escherichia coli, UniProt P02930). To be noted: for occlusion of TolC channels (Figure 3 legend): 2 μg/mL both sides, 50 mV, 0.1 M KCl, 5 mM Tris-HCl pH 7.5.
Series [5] relates to TolC trimer. In words: Co-elution of T-domain peptides with TolC on Superdex 200 size-exclusion column. It counts as binding, Escherichia coli. To be noted: TolC:peptide 1:2, Superdex 200; peak shift and SDS–PAGE. For orientation: Size exclusion chromatography separates by hydrodynamic size, large species first.
Series [6] addresses T1, TolC trimer (E. coli, UniProt P02930 23-493).
T1 sequence (looked up): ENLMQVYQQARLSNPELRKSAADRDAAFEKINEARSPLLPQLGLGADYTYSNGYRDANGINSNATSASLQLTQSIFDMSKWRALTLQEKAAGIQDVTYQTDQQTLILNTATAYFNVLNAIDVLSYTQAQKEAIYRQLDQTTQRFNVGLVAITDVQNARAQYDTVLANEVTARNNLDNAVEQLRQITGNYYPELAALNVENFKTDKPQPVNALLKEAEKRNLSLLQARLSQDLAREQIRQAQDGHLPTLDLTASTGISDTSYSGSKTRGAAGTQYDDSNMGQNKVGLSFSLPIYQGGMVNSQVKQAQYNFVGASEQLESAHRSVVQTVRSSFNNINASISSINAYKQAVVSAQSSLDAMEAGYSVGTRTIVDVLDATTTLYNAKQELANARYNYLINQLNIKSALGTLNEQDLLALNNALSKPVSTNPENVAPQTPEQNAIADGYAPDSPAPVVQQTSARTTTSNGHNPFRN
The series can be described thus: precipitation upon mixing.

The target of series [7] is T1, TolC trimer. In words: SEC.
The target in series [8] is T1, TolC trimer. The series can be described thus: occlusion of TolC ion channels in planar bilayer lipid membranes.
Series [9] concerns the target T1, TolC trimer. In words: SEC. The source holds these as a separate data set.

Like-named read-outs stand apart in the source and are kept apart here.

One may read the Kd as the free concentration of one partner at which half of the binding sites on the other are occupied at equilibrium, for simple one-to-one binding. Higher therefore signals lower affinity.

α-synuclein: in series [1], the helical content is reported as 0%.
Take “141–190 ^c: colicin E1 T-domain peptide, residues 141–190 (KEAEAAEKAFQEAEQRRKEIEREKAETERQLKLAEAEEKRLAALSEEAKA)”: in series [2], the “no. of residues, unordered” value is recorded as 5 residues. The “cooperativity of thermal melting” value in series [3] was “not cooperative”.
As to “139–190 ^b: colicin E1 T-domain peptide, residues 139–190 (ARKEAEAAEKAFQEAEQRRKEIEREKAETERQLKLAEAEEKRLAALSEEAKA; UniProt P02978 139-190, looked up, fragment)”, the “no. of residues, unordered” value in [2] was 7 residues.
On to “81–140 ^b: colicin E1 T-domain peptide, residues 81–140 (AKAKANRDALTQRLKDIVNEALRHNASRTPSATELAHANNAAMQAEDERLRLAKAEEKAR; UniProt P02978 81-140, looked up, fragment)”, for which the “no. of residues, unordered” value in series [2] was determined as 25 residues.
For “100–140 ^b: colicin E1 T-domain peptide, residues 100–140 (EALRHNASRTPSATELAHANNAAMQAEDERLRLAKAEEKAR; UniProt P02978 100-140, looked up, fragment)”, in series [2], the “no. of residues, unordered” value worked out at 15 residues. Also, the “occlusion of TolC channels (Figure 3 legend)” value in series [4] is given as “Occlusion of TolC channels”. In addition, the “effect on transmembrane current through TolC channels” value in series [4] (2 μg/mL on both sides of BLM) was “significant and irreversible decrease in transmembrane current”.
Turning to “1–40 ^c: colicin E1 T-domain peptide, residues 1–40 (METAVAYYKDGVPYDDKGQVIITLLNGTPDGSGSGGGGGK; UniProt P02978 1-40, looked up, fragment)”, in series [2], the “secondary structure, in words” value is recorded as “predominately disordered”; the “no. of residues, helix” value is on record as 0 residues; the “no. of residues, unordered” value worked out at 40 residues.

B1: 1–81 ^c: colicin E1 T-domain peptide, residues 1–81 (peptide, UniProt P02978 1-81, looked up, fragment)
chain: METAVAYYKDGVPYDDKGQVIITLLNGTPDGSGSGGGGGKGGSKSESSAAIHATAKWSTAQLKKTQAEQAARAKAAAEAQA
For B1, in series [2], the “secondary structure, in words” value is reported as “low helical content”; the “no. of residues, helix” value was determined as 13 ± 2 residues; the “no. of residues, unordered” value is on record as roughly 70 residues. Besides, the “secondary structure, in words” value in [2] (listed as T1–81) is “predominately disordered”.

B2: colicin E1 T-domain peptide T57–120 (domain or fragment, UniProt P02978 57-120, looked up)
chain: WSTAQLKKTQAEQAARAKAAAEAQAKAKANRDALTQRLKDIVNEALRHNASRTPSATELAHANN
In the case of B2, the “co-elution / interaction with TolC, in words” value (“co-elution / interaction” for short) in series [5] is reported as “severe protein precipitation”. For the same molecule, in series [2], the “no. of residues, helix” value is 44 ± 4 residues and the “no. of residues, unordered” value is 20 residues. Further, the binding result in series [6] is reported as “binds”.

B3: 1–100 ^b: colicin E1 T-domain peptide, residues 1–100 (peptide)
chain: METAVAYYKDGVPYDDKGQVIITLLNGTPDGSGSGGGGGKGGSKSESSAAIHATAKWSTAQLKKTQAEQAARAKAAAEAQAKAKANRDALTQRLKDIVNE
B3: in series [2], the “no. of residues, helix” value came out at 30 ± 4 residues and the “no. of residues, unordered” value is listed as roughly 70 residues. In [2] (versus next shorter peptide (1–81, 1–100, 1–120, 1–140, 1–190 series)), the “increase in helical residues on lengthening the peptide” value came out at 17 residues. In addition, in [4], the “occlusion of TolC channels (Figure 3 legend)” value is “Lack of TolC occlusion”. Moreover, in [4] (10 μg/mL), the “effect on transmembrane current through TolC channels” value is “did not decrease the transmembrane current”.

B4: 100–190 ^b: colicin E1 T-domain peptide, residues 100–190 (peptide, UniProt P02978 100-190, looked up, fragment)
chain: EALRHNASRTPSATELAHANNAAMQAEDERLRLAKAEEKARKEAEAAEKAFQEAEQRRKEIEREKAETERQLKLAEAEEKRLAALSEEAKA
For the molecule B4, the “no. of residues, unordered” value in [2] was 12 residues. The “cooperativity of thermal melting” value in series [3] is reported as “not cooperative”.

B5: colicin E1 T-domain peptide T1–140 (domain or fragment, UniProt P02978 1-140, looked up)
chain: METAVAYYKDGVPYDDKGQVIITLLNGTPDGSGSGGGGGKGGSKSESSAAIHATAKWSTAQLKKTQAEQAARAKAAAEAQAKAKANRDALTQRLKDIVNEALRHNASRTPSATELAHANNAAMQAEDERLRLAKAEEKAR
For the molecule B5, in series [7], the binding result is recorded as “binds”.

B6: 41–120 ^b: colicin E1 T-domain peptide, residues 41–120 (peptide, UniProt P02978 41-120, looked up, fragment)
chain: GGSKSESSAAIHATAKWSTAQLKKTQAEQAARAKAAAEAQAKAKANRDALTQRLKDIVNEALRHNASRTPSATELAHANN
Take B6: in [2], the “no. of residues, helix” value came to 29 ± 2 residues and the “no. of residues, unordered” value was 51 residues.

B7: colicin E1 T-domain peptide T57–140 (domain or fragment)
chain: WSTAQLKKTQAEQAARAKAAAEAQAKAKANRDALTQRLKDIVNEALRHNASRTPSATELAHANNAAMQAEDERLRLAKAEEKAR
On to B7, for which the “co-elution / interaction” value in series [5] is “severe protein precipitation”. Besides, in series [2], the “no. of residues, helix” value stood at 54 ± 4 residues and the “no. of residues, unordered” value was found to be 30 residues. Further, in series [4] (I = 0.1 M, pH 7.5), the “concentration at which TolC channels were efficiently occluded” value is no less than 0.2 µM and the “concentration at which TolC channels were not occluded” value was found to be 40 nM. The molecule further yielded a Kd in series [8] of roughly 100 nM.

B8: 81–141 ^c: colicin E1 T-domain peptide, residues 81–141 (peptide, UniProt P02978 81-141, looked up, fragment)
chain: AKAKANRDALTQRLKDIVNEALRHNASRTPSATELAHANNAAMQAEDERLRLAKAEEKARK
Turning to B8, in [2], the “no. of residues, unordered” value is given as 44 residues.

B9: 41–140 ^b: colicin E1 T-domain peptide, residues 41–140 (peptide, UniProt P02978 41-140, looked up, fragment)
chain: GGSKSESSAAIHATAKWSTAQLKKTQAEQAARAKAAAEAQAKAKANRDALTQRLKDIVNEALRHNASRTPSATELAHANNAAMQAEDERLRLAKAEEKAR
For B9, in series [2], the “no. of residues, helix” value was determined as 65 ± 5 residues and the “no. of residues, unordered” value is reported as 35 residues.

B10: colicin E1 T-domain peptide T1–120 (domain or fragment, UniProt P02978 1-120, looked up)
chain: METAVAYYKDGVPYDDKGQVIITLLNGTPDGSGSGGGGGKGGSKSESSAAIHATAKWSTAQLKKTQAEQAARAKAAAEAQAKAKANRDALTQRLKDIVNEALRHNASRTPSATELAHANN
With B10, the “co-elution / interaction” value in series [5] is listed as “Co-elution was detected”. Moreover, in [2], the “no. of residues, helix” value worked out at 46 ± 12 residues and the “no. of residues, unordered” value came out at 74 residues. The binding result in series [7] is recorded as “binds”.

B11: colicin E1 T-domain peptide T57–190 (domain or fragment)
chain: WSTAQLKKTQAEQAARAKAAAEAQAKAKANRDALTQRLKDIVNEALRHNASRTPSATELAHANNAAMQAEDERLRLAKAEEKARKEAEAAEKAFQEAEQRRKEIEREKAETERQLKLAEAEEKRLAALSEEAKA
In the case of B11, the binding result in [9] is listed as “binds”.

B12: colicin E3 peptide T1–83: naturally disordered T1–83 peptide of colicin E3 used for zero helical content (peptide, UniProt P00646 1-83, looked up, fragment)
chain: MSGGDGRGHNTGAHSTSGNINGGPTGLGVGGGASDGSGWSSENNPWGGGSGSGIHWGGGSGHGNGGGNGNSGGGSGTGGNLSA
On to B12, for which the helical content in series [2] (reference for disordered protein in CD222/CD208 plot) is listed as 0%.
